The test has as its target F25Y. The test can be described thus: binding to CTD phosphopeptide.

Non-standard residues stand in square brackets, D forms with d. No end group written: not given here. pS = N[C@@H](COP(=O)(O)O)C(=O)O

Usually Kd stands for the concentration at which binding is half-saturated. A lower Kd goes with a tighter complex. In the case of Y[pS]PT[pS]PS (also: tetramethylrhodamine label on an amine, place not given here) [CTD Repeat Tyr-P.Ser-Pro-Thr-P.Ser-Pro-Ser], the dissociation constant (Kd) was 12 µM.

Values taken from patent US7127357 (dated 2006).
